Results on one molecule are retold here after patent US20220403048A1, “BINDING MOLECULES TO ARGINASE II [ARG2]” (Cancer Research Technology Limited, priority 2019, published 2022).

For assay [1], the target named is T1, THP-1 lysate derived human trimeric ARG2 (Homo sapiens, UniProt P78540).
T1 construct: expressed in transfected cells; host or cells: THP-1 cells overexpressing human ARG2 (cell lysate)
T1 sequence (P78540 23-354): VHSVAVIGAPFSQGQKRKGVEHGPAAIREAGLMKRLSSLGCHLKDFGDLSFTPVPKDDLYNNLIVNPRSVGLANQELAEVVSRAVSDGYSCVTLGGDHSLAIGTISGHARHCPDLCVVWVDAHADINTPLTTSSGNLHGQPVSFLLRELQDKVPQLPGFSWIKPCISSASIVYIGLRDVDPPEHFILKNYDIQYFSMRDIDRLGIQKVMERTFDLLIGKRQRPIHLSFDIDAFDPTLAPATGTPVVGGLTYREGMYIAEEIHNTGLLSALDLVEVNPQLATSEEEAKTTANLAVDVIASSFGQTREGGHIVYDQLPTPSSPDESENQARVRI
Kind of assay: THP-1 lysate derived human ARG2 enzyme inhibition assay. In kind it is biochemical. Conditions: recombinant human IgG1, lysate without plasma (section 3.3), FIG. 13; read-out: THP-1 lysate ARG2 EIA IC50. How it is done: Anti-ARG2 IgGs were tested for their ability to inhibit mammalian expressed human ARG2 produced in transfected THP-1 cells. To do this cell lysates were prepared from THP-1 cells overexpressing human ARG2 and from wild type THP-1 cells. 350 million cells were suspended in 3 ml tris buffered saline (25 mM Tris+150 mM sodium chloride in dH2O, pH 7.4) and cell lysates prepared by passing through a 26G needle 20 times. A BCA assay was used to measure the protein concentration in the lysate. […] Antibodies were tested alongside N-Hydroxyl-L-Arginine (a small molecule competitive inhibitor of ARG2) as a positive control and CEA6 (irrelevant isotype control antibody) as a negative control. Data points were plotted and IC50 values determined using a four parameter fit in GraphPad Prism (FIG. 11, Table 13).
Anti-ARG2 IgGs were tested for their ability to inhibit to mammalian expressed human ARG2 produced in transfected THP-1 cells. […] Urea detection reagents, O-Phthaldialdehyde (1.5 mM O-Phthaldialdehyde, 7% H2SO4, 0.03% Brij L23) and N-(1-Napthyl)ethylenediamine (1.66 mM N-(1-Napthyl)ethylenediamine, 81 mM Boric acid, 21% H2SO4, 0.03% Brij L23) were mixed 1:1 just prior to use and 80 μl/well were added, incubated for 1 hour at room temperature and absorbance at 505 nm was read on a Pherastar plate reader. […]

The next assay concerns the target T2, ARG2 (Homo sapiens, UniProt P78540).
T2 sequence (P78540 23-354): T1 sequence (P78540 23-354)
The assay is described as follows: T cell proliferation assay (BrdU, 96 hours) with exogenous ARG2, improved variant IgGs. Conditions: In Presence of rhARG2; hIgG1; top conc 2 μM; n=2. It counts as cell-based. On the set-up: human ARG2 (aa23-354); His10 (C); made in house; host or cells: E. coli BL21 (DE3). How it is done: This assay served to provide evidence of improved functional efficacy for each affinity-matured antibody in comparison to the parent IgG, C0020187 (FIG. 12).
Lead optimisation clones were tested to an endpoint treatment time of 96 hours and the BrdU Cell Proliferation Kit (Roche, France; Cat: 11647229001) was used according to the manufacturer's instructions. R347 was used as the irrelevant control. All clones tested n=2.
Leukocyte cones underwent Ficoll Plaque (GE, Sweden; Cat: 17-1440-02) gradient separation, PBMC's were extracted and pan T cell population isolated by negative selection using the Human T Cell Enrichment Kit (Stemcell Technologies, France; Cat: 19051) according to the manufacturer's instructions.
40000 cells/well were seeded in complete growth media (RMPI 1640, 5% Human Serum Albumin) into a 96 well clear TC treated microplate (Greiner-Bio One, Germany; Cat: 655180). T cells were activated by the addition of ImmunoCult CD3/CD28 (Stemcell Technologies, France; Cat: 10971) at a dilution of 1:40 directly into wells and the plate incubated 37° C., 5% CO2 for 45 minutes. […]
Calculated data was expressed as % of control (Equation 3) and graphical plots were constructed using a four parameter fit and EC50's determined using model 205 in XLFit (IDBS, UK). […]

B1: C0021158: anti-ARG2 antibody, second generation lead, VH SEQ ID NO: 272, VL SEQ ID NO: 277 (antibody, listed as Homo sapiens, V domains shown)
VH: EVQLLESGGGLVQPGGSLRLSCAASGFTFRYEVAAWVRQAPGKGLEWVSAISGPIPKGYYADSVKGRFTISRDNSKNTLYLQMNSLRAEDTAVYYCARLRADLGLYMDLWGRGTLVTVPS
VL: QSVLTQPPSVSAAPGQKVTISCSGSSSNIGNHYVSWYQQLPGTAPKLLIYDNSERTAGVPDRFSGSKSGTSATLGITGLQTGDEADYYCGTWDELTSNLVFGGGTKLTVL
modifications: C0021158
In general, IC50 refers to the concentration that gives 50% inhibition. For orientation: EC50 means the midpoint of the concentration-response curve. For B1, in assay [1], the 50% inhibitory concentration (IC50) stood at 5.36 nM. In addition, in the assay with ARG2, the EC50 stood at 157 nM and the “Maximum % Proliferation” value is 90%.
